From IntAct's records for PubMed 22653441

B1: Serine/threonine-protein kinase PAK 4 (Homo sapiens), O96013 (parent)
chain: MFGKRKKRVEISAPSNFEHRVHTGFDQHEQKFTGLPRQWQSLIEESARRPKPLVDPACITSIQPGAPKTIVRGSKGAKDGALTLLLDEFENMSVTRSNSLRRDSPPPPARARQENGMPEEPATTARGGPGKAGSRGRFAGHSEAGGGSGDRRRAGPEKRPKSSREGSGGPQESSRDKRPLSGPDVGTPQPAGLASGAKLAAGRPFNTYPRADTDHPSRGAQGEPHDVAPNGPSAGGLAIPQSSSSSSRPPTRARGAPSPGVLGPHASEPQLAPPACTPAAPAVPGPPGPRSPQREPQRVSHEQFRAALQLVVDPGDPRSYLDNFIKIGEGSTGIVCIATVRSSGKLVAVKKMDLRKQQRRELLFNEVVIMRDYQHENVVEMYNSYLVGDELWVVMEFLEGGALTDIVTHTRMNEEQIAAVCLAVLQALSVLHAQGVIHRDIKSDSILLTHDGRVKLSDFGFCAQVSKEVPRRKSLVGTPYWMAPELISRLPYGPEVDIWSLGIMVIEMVDGEPPYFNEPPLKAMKMIRDNLPPRLKNLHKVSPSLKGFLDRLLVRDPAQRATAAELLKHPFLAKAGPPASIVPLMRQNRTR

Variants of: B1
Settings: with cdc42_human CDC42, P60953
Sequence of cdc42_human CDC42, P60953 (P60953 whole entry, looked up): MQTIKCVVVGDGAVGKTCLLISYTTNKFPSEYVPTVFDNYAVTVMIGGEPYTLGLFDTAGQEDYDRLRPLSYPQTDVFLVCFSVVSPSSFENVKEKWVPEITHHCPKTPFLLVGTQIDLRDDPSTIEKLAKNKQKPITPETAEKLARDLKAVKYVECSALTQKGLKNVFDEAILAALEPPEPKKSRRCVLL

effect of a mutation on the interaction | Variant
disrupting interaction | T60E
disrupting interaction | R48E
disrupting interaction | R49E
